Data published in patent US20220332804A1 (CSL INNOVATION, published 2022).
Substitutions are numbered along the chain they refer to.

Key:
Assay in all cases: SPR, antibody captured, C2 as analyte;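 also: biacore at 37 °C, anti-C2 mAbs held by immobilised goat anti-human IgG, C2 alanine or serine mutants injected, double-referenced sensorgrams fitted to a 1:1 kinetic or steady-state model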
human C2 F270A = molecular target: T1, human C2 F270A (human, UniProt P06681 21-752)
T1 sequence: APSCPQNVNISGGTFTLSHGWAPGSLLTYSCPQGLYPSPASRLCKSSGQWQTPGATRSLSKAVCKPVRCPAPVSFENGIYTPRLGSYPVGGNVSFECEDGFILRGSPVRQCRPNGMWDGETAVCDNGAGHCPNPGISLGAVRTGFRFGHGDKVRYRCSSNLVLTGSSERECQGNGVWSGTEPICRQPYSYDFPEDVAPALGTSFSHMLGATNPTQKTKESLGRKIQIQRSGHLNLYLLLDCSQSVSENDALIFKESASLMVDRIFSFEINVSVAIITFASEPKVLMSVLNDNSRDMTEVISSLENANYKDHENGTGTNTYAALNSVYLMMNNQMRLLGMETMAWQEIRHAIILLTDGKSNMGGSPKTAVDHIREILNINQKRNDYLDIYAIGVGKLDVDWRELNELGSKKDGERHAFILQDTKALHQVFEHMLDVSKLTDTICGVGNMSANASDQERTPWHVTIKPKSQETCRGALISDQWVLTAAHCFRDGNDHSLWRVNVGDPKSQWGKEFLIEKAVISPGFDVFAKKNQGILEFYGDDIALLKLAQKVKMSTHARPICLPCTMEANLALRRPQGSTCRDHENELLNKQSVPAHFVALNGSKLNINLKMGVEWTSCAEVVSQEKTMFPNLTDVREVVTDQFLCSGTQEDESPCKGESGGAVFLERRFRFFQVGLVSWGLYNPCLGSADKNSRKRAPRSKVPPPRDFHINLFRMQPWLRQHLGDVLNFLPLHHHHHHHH
Method: (§1) Surface plasmon resonance (SPR, Biacore) was used for all binding affinity analyses. In brief, goat anti-human IgG was directly immobilised onto the carboxymethyl dextran surface of CM5 sensorchips to approximately 12,000 RU using standard NHS/EDC chemistry at pH 5. The immobilised antibody surface was pre-conditioned with ten injections of polyclonal human IgG (Privigen 60 s) prepared at 1 μg/mL. Ligands (anti-C2 mAbs) were captured at the beginning of each cycle as described below. An adjacent spot or flow cell in which only Polyclonal IgG was capture was used as a reference surface. The goat anti-human IgG Fc antibody surface was regenerate in 100 mM H3PO4, injected for 45 seconds at the end of each cycle. Experiments were performed at 37° C. and the flow rate of each experiment was kept constant at 30 μL/min.
(§2) Sensogram data was double-referenced against a reference anti-IgG surface (i.e. minus anti-C2 mAb) and blank buffer injections obtained within each experiment. The binding data was fit to 1:1 (kinetic or steady-state) model using local Rmax and null refraction index (RI=0) when appropriate. Buffers and solutions were filtered (0.22 μm) prior to use.

human C2 S473A = molecular target: T2, human C2 S473A (human, UniProt P06681 21-752)
T2 sequence: T1 sequence with A250F, S453A
Method: as §1, §2

human C2 H331A = molecular target: T3, human C2 H331A (human, UniProt P06681 21-752)
T3 sequence: T1 sequence with A250F, H311A
Method: as §1, §2

human C2 D454A = molecular target: T4, human C2 D454A (human, UniProt P06681 21-752)
T4 sequence: T1 sequence with A250F, D434A
Method: as §1, §2

B1: RF16-242 (antibody, human IgG4 S228P, lambda, V domains shown)
VH: EVQLLQSGAEVKKPGESLKISCKGSGYSFTSYWIGWVRQMPGKGLEWMGIIYPGDSDTRYSPSFQGQVTISADKSISTAYLQWSSLKASDTAMYYCARRGHYGDYFDYWGQGTLVTVSS
VL: SYELTQPPSVSVSPGQTARITCSGDALPKKYAYWYHQKSGQAPVLVIYEDRRRPSEIPERFSGSSSGTMATLTITGAQVEDEGVYFCYSRDRAGNQRVFGGGTQLTVLG
notes: pH-dependent anti-C2 antibody from a phage display library
Kd (human C2 F270A): 104 nM | Kd (human C2 S473A): 15.5 nM | Kd (human C2 H331A): 191 nM | Kd (human C2 D454A): 35.4 nM
